For one assay, the target named is T1, FLAG tagged Pyk2 R306E (UniProt Q14289 1-1009, limits assumed).
T1 construct: mature; also called Pyk2 with substitution of R306
The assay can be described thus: anti-FLAG immunoprecipitation and 12A10 immunoblot. The text has this: (§1) FIG. 2 (bottom panel) depicts a Western blot using anti-Pyk2 12A10 monoclonal antibody. SF767 cells were transfected with FLAG epitope tagged wild type (WT) Pyk2 or Pyk2 with the indicated amino acid substitution. Cells were lysed, Pyk2 was immunoprecipitated with anti-FLAG mAb, and immunoprecipitates immunoblotted with anti FLAG, anti-phosphotyrosine mAb pY20 or mAb 12A10. FIG. 2 (top) is a three dimensional model of the Pyk2 FERM with the locations of interacting residues, indicated by Arial font and non-interacting surfaces indicated by Times Roman font.
(§2) Immunoprecipitation of cleared lysates was performed as described elsewhere (Lipinski et al., Biochem. Biophys. Res. Commun., 349:939-947 (2006)). For immunoblotting, equal amounts of protein (10-20 μg) were electrophoresed on 8-16% gradient SDS-PAGE gels (Invitrogen, Carlsbad, Calif.) and transferred to nitrocellulose. Immunoblotting of transferred proteins was performed with the appropriate primary antibodies for 1 hour at room temperature and was visualized by enhanced chemiluminescence (Perkin Elmer Life Sciences, Boston, Mass.).
In general terms: Immunoblotting shows a protein as a band on a membrane.

The target of the next assay is T2, FLAG tagged Pyk2 Y135C (UniProt Q14289 1-1009, limits assumed).
T2 construct: mature; also called Pyk2 with substitution of Y135
T2 sequence (Q14289 whole entry Y135C): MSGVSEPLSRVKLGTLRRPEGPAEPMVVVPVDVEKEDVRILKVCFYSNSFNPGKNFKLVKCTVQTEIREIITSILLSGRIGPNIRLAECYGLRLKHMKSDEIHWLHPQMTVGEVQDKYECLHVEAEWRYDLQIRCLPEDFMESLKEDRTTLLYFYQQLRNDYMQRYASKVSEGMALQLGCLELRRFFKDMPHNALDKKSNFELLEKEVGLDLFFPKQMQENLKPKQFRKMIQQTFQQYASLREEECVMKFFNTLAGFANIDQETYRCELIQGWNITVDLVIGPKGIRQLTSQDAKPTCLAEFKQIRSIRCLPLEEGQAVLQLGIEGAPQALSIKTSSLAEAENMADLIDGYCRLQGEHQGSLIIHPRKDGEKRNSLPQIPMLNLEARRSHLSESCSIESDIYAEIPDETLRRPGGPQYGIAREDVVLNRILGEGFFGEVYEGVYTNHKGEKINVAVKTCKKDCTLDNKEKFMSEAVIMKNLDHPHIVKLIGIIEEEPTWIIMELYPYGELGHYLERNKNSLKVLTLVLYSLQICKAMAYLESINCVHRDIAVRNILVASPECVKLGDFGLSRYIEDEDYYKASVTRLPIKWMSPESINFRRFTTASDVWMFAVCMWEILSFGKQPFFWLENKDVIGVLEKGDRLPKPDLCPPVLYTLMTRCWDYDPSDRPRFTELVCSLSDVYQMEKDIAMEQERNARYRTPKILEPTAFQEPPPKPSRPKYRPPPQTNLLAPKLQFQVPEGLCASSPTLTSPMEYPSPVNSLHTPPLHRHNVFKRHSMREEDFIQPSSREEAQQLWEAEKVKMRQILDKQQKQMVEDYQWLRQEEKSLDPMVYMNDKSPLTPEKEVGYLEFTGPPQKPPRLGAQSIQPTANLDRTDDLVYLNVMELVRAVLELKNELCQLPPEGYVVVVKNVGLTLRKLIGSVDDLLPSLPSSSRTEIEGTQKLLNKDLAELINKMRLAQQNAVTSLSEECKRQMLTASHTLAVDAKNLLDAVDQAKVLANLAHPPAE
The assay can be described thus: anti-FLAG immunoprecipitation and 12A10 immunoblot.
Source text: as §1, §2

A further assay deals with T3, FLAG tagged Pyk2 W104A (UniProt Q14289 1-1009, limits assumed).
T3 construct: mature; also called Pyk2 with substitution of W104
T3 sequence (Q14289 whole entry W104A): as the sequence (Q14289 whole entry Y135C) above, with W104A, C135Y counted along it
The assay can be described thus: anti-FLAG immunoprecipitation and 12A10 immunoblot.
Source text: as §1, §2

The target of another assay is T4, FLAG tagged Pyk2 D346A (UniProt Q14289 1-1009, limits assumed).
T4 construct: mature; also called Pyk2 with substitution of D346
T4 sequence (Q14289 whole entry D346A): as the sequence (Q14289 whole entry Y135C) above, with C135Y, D346A counted along it
The assay can be described thus: anti-FLAG immunoprecipitation and 12A10 immunoblot.
Source text: as §1, §2

In another assay the target is T5, FLAG tagged Pyk2 I308E (UniProt Q14289 1-1009, limits assumed).
T5 construct: mature; also called Pyk2 with substitution of I308
T5 sequence (Q14289 whole entry I308E): as the sequence (Q14289 whole entry Y135C) above, with C135Y, I308E counted along it
The assay can be described thus: anti-FLAG immunoprecipitation and 12A10 immunoblot.
Source text: as §1, §2

A further assay deals with T6, Pyk2 FERM I308E variant (UniProt Q14289 39-366).
T6 construct: domain: FERM domain; Printed once as '1308E' (a misprint of I308E); also called Pyk2 FERM variant 1308E
T6 sequence (Q14289 39-366 I308E): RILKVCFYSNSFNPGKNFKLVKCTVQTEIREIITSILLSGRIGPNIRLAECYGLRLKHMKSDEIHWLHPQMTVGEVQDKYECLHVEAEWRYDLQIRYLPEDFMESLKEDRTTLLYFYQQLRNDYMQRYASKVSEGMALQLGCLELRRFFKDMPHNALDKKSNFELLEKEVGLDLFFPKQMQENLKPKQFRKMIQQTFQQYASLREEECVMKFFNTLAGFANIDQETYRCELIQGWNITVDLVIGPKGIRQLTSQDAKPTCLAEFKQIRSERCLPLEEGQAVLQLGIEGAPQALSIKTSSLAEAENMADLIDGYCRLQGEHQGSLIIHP
The assay can be described thus: capture sandwich ELISA with hybridoma supernatant. For orientation: In an ELISA, binding on a coated surface is turned into a signal by an enzyme label.

Assay [1] has as its target T7, HA-epitope tagged wild type FAK (UniProt Q05397 2-1052, limits assumed).
T7 construct: mature; also called full length FAK; tyrosine kinase FAK
The assay can be described thus: Western blot of lysates of transfected SF767 cells.

In assay [2] the target is T8, 3x HA-tagged FAK FERM domain (FAK residues R35-P362) (UniProt Q05397 35-362).
T8 construct: range 35-362
T8 sequence (looked up): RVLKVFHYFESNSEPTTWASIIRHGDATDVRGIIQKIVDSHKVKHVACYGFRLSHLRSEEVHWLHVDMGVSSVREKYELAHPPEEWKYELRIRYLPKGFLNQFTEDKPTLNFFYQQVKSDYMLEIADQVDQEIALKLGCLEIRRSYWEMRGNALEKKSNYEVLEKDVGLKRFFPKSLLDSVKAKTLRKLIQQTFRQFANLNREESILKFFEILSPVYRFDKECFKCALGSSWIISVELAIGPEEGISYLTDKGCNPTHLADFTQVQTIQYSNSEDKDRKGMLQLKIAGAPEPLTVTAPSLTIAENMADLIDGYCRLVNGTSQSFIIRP
The assay can be described thus: Western blot of lysates of transfected SF767 cells.

Another assay concerns the target T9, Pyk2 FERM (FAKF3) (UniProt Q14289 39-260; Q05397 254-362).
T9 construct: range 39-260;range 254-362; A chimera made by splice overlap extension PCR; The range 39-260 of Pyk2 is derived from the printed limits of the FERM domain (R39-A366) and the F3 module (D261-A366); also called Pyk2 FERM domain containing the FAK FERM F3 domain
The assay can be described thus: Western blot of lysates of transfected SF767 cells.

The values that follow come from patent publication US20110136232A1 (MAYO FOUNDATION FOR MEDICAL EDUCATION AND RESEARCH, published 2011).

T7 sequence (Q05397 2-1052 limits assumed): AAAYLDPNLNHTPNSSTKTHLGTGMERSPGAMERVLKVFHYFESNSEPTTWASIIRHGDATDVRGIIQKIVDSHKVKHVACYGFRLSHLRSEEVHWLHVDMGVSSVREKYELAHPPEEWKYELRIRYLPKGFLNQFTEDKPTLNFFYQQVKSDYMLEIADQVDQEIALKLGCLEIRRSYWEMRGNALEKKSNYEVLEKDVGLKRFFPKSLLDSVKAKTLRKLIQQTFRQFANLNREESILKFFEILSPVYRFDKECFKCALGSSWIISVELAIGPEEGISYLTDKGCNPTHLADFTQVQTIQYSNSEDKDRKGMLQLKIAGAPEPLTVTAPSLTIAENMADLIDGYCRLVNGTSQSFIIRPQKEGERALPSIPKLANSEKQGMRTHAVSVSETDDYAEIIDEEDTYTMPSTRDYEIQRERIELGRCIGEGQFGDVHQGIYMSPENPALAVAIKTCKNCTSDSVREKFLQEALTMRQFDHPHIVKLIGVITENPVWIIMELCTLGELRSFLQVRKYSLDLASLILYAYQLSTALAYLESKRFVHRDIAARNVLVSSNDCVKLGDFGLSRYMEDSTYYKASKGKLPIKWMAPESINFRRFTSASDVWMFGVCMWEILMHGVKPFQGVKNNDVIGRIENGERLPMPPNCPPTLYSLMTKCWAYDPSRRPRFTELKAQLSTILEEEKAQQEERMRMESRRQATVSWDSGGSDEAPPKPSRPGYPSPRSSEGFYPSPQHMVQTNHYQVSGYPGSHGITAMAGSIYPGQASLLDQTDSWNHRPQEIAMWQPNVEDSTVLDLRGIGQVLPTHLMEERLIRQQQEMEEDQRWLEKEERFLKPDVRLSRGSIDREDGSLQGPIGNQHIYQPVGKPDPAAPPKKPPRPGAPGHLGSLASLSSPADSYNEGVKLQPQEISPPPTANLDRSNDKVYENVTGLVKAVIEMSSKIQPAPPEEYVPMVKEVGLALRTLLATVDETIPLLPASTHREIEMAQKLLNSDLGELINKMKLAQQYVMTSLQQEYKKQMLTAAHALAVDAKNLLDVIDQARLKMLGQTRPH
T1 sequence (Q14289 whole entry R306E): as the sequence (Q14289 whole entry Y135C) above, with C135Y, R306E counted along it

B1: mouse monoclonal antibody 12A10 (antibody, V domains shown)
VH: EVKLQESGPELKKPGETVKISCKASGYTFTDYSMHWVMQSPGKGLKWMGWINTETGEPRYVDDFKGRFAFSLETSASTAYLQIINLKNEDTATYFCARWDHGHGGFTYWGQGTLVTVSA
VL: DIVLTQTTASLAVSLGQRATMSCRATESVDSYGKSFMYWFQQRAGQPPKLLIYLASNLESVVPPRFSGSGSRTDFSLTIDPVEADDAATYYCQQNNEDPFTFGSGTKLEIK
notes: Mouse IgG1 from hybridoma 12A10, raised against the His-tagged Pyk2 F3 module (D261-A366); Used as hybridoma supernatant in the ELISA screen and as an antibody in the Western blots; also called mAb 12A10; anti-Pyk2 12A10 monoclonal antibody
With B1, the binding result with FLAG tagged Pyk2 R306E is recorded as “no binding”; with FLAG tagged Pyk2 Y135C it was “binds”; with FLAG tagged Pyk2 W104A, “binds”; in the assay with FLAG tagged Pyk2 D346A, “binds”; with FLAG tagged Pyk2 I308E, “no binding”; in the assay with Pyk2 FERM I308E variant, “no binding”. Also, the binding result (in [1]; in assay [2]; in the assay with Pyk2 FERM (FAKF3)) was “no binding” in each case.
